In the RNAGym collection of RNA variant scans (doi:10.1021/acssynbio.7b00057):

B1: Pistol ribozyme (parent)
chain: GGGUCGUUGUUCCAUAAUCGCGUGGAUAUGGCACGCAAGUUUCUACCGGGCACCGUAAAUGUCCGACUGGAGCCGUUCGGGCGGCUAUAAACAGACCUCAGGCCCGAAGCGUGGCGGCACCUGCCGCCGGUGGUAAAAAAGAUCGGAAGAGCACACGUCU

Variants of: B1
Experiment: aptazyme ON/OFF ratio, guanine; higher = stronger switching; co-transcriptional cleavage with and without guanine

Variant	aptazyme ON/OFF ratio
GGGUCGGCUCUGAAUAAUCGCGUGGAUAUGGCACGCAAGUUUCUACCGGGCACCGUAAAUGUCCGACUGGAGCCGUUCGGGCGGCUAUAAACAGACCUCAGGCCCGAAGCGUGGCGGCACCUGCCGCCGGUGGUAAAAAAGAUCGGAAGAGCACACGUCU [U7G U8C G9U U10C C12G C13A]	1.31
GGGUCGGCUCUGGAUAAUCGCGUGGAUAUGGCACGCAAGUUUCUACCGGGCACCGUAAAUGUCCGACUGGAGCCGUUCGGGCGGCUAUAAACAGACCUCAGGCCCGAAGCGUGGCGGCACCUGCCGCCGGUGGUAAAAAAGAUCGGAAGAGCACACGUCU [U7G U8C G9U U10C C12G C13G]	1.22
GGGUCGGCUCUGUAUAAUCGCGUGGAUAUGGCACGCAAGUUUCUACCGGGCACCGUAAAUGUCCGACUGGAGCCGUUCGGGCGGCUAUAAACAGACCUCAGGCCCGAAGCGUGGCGGCACCUGCCGCCGGUGGUAAAAAAGAUCGGAAGAGCACACGUCU [U7G U8C G9U U10C C12G C13U]	1.29
GGGUCGGCUACUUAUAAUCGCGUGGAUAUGGCACGCAAGUUUCUACCGGGCACCGUAAAUGUCCGACUGGAGCCGUUCGGGCGGCUAUAAACAGACCUCAGGCCCGAAGCGUGGCGGCACCUGCCGCCGGUGGUAAAAAAGAUCGGAAGAGCACACGUCU [U7G U8C G9U U10A U11C C12U C13U]	1.56
GGGUCGGCUACUGAUAAUCGCGUGGAUAUGGCACGCAAGUUUCUACCGGGCACCGUAAAUGUCCGACUGGAGCCGUUCGGGCGGCUAUAAACAGACCUCAGGCCCGAAGCGUGGCGGCACCUGCCGCCGGUGGUAAAAAAGAUCGGAAGAGCACACGUCU [U7G U8C G9U U10A U11C C12U C13G]	1.25
GGGUCGGCUACUAAUAAUCGCGUGGAUAUGGCACGCAAGUUUCUACCGGGCACCGUAAAUGUCCGACUGGAGCCGUUCGGGCGGCUAUAAACAGACCUCAGGCCCGAAGCGUGGCGGCACCUGCCGCCGGUGGUAAAAAAGAUCGGAAGAGCACACGUCU [U7G U8C G9U U10A U11C C12U C13A]	1.48
GGGUCGGCUAGUAAUAAUCGCGUGGAUAUGGCACGCAAGUUUCUACCGGGCACCGUAAAUGUCCGACUGGAGCCGUUCGGGCGGCUAUAAACAGACCUCAGGCCCGAAGCGUGGCGGCACCUGCCGCCGGUGGUAAAAAAGAUCGGAAGAGCACACGUCU [U7G U8C G9U U10A U11G C12U C13A]	1.2
GGGUCGGCUAGUUAUAAUCGCGUGGAUAUGGCACGCAAGUUUCUACCGGGCACCGUAAAUGUCCGACUGGAGCCGUUCGGGCGGCUAUAAACAGACCUCAGGCCCGAAGCGUGGCGGCACCUGCCGCCGGUGGUAAAAAAGAUCGGAAGAGCACACGUCU [U7G U8C G9U U10A U11G C12U C13U]	1.16
GGGUCGGCUAGUGAUAAUCGCGUGGAUAUGGCACGCAAGUUUCUACCGGGCACCGUAAAUGUCCGACUGGAGCCGUUCGGGCGGCUAUAAACAGACCUCAGGCCCGAAGCGUGGCGGCACCUGCCGCCGGUGGUAAAAAAGAUCGGAAGAGCACACGUCU [U7G U8C G9U U10A U11G C12U C13G]	1.11
GGGUCGGCUAGGUAUAAUCGCGUGGAUAUGGCACGCAAGUUUCUACCGGGCACCGUAAAUGUCCGACUGGAGCCGUUCGGGCGGCUAUAAACAGACCUCAGGCCCGAAGCGUGGCGGCACCUGCCGCCGGUGGUAAAAAAGAUCGGAAGAGCACACGUCU [U7G U8C G9U U10A U11G C12G C13U]	1.1
GGGUCGGCUAGGGAUAAUCGCGUGGAUAUGGCACGCAAGUUUCUACCGGGCACCGUAAAUGUCCGACUGGAGCCGUUCGGGCGGCUAUAAACAGACCUCAGGCCCGAAGCGUGGCGGCACCUGCCGCCGGUGGUAAAAAAGAUCGGAAGAGCACACGUCU [U7G U8C G9U U10A U11G C12G C13G]	1.13
GGGUCGGCUAGGAAUAAUCGCGUGGAUAUGGCACGCAAGUUUCUACCGGGCACCGUAAAUGUCCGACUGGAGCCGUUCGGGCGGCUAUAAACAGACCUCAGGCCCGAAGCGUGGCGGCACCUGCCGCCGGUGGUAAAAAAGAUCGGAAGAGCACACGUCU [U7G U8C G9U U10A U11G C12G C13A]	1.13
GGGUCGGCUCUAUAUAAUCGCGUGGAUAUGGCACGCAAGUUUCUACCGGGCACCGUAAAUGUCCGACUGGAGCCGUUCGGGCGGCUAUAAACAGACCUCAGGCCCGAAGCGUGGCGGCACCUGCCGCCGGUGGUAAAAAAGAUCGGAAGAGCACACGUCU [U7G U8C G9U U10C C12A C13U]	1.58
GGGUCGGCUCUAAAUAAUCGCGUGGAUAUGGCACGCAAGUUUCUACCGGGCACCGUAAAUGUCCGACUGGAGCCGUUCGGGCGGCUAUAAACAGACCUCAGGCCCGAAGCGUGGCGGCACCUGCCGCCGGUGGUAAAAAAGAUCGGAAGAGCACACGUCU [U7G U8C G9U U10C C12A C13A]	1.49
GGGUCGGCUCUAGAUAAUCGCGUGGAUAUGGCACGCAAGUUUCUACCGGGCACCGUAAAUGUCCGACUGGAGCCGUUCGGGCGGCUAUAAACAGACCUCAGGCCCGAAGCGUGGCGGCACCUGCCGCCGGUGGUAAAAAAGAUCGGAAGAGCACACGUCU [U7G U8C G9U U10C C12A C13G]	1.27
GGGUCGGCUAGUCAUAAUCGCGUGGAUAUGGCACGCAAGUUUCUACCGGGCACCGUAAAUGUCCGACUGGAGCCGUUCGGGCGGCUAUAAACAGACCUCAGGCCCGAAGCGUGGCGGCACCUGCCGCCGGUGGUAAAAAAGAUCGGAAGAGCACACGUCU [U7G U8C G9U U10A U11G C12U]	1.33
GGGUCGGCUAGGCAUAAUCGCGUGGAUAUGGCACGCAAGUUUCUACCGGGCACCGUAAAUGUCCGACUGGAGCCGUUCGGGCGGCUAUAAACAGACCUCAGGCCCGAAGCGUGGCGGCACCUGCCGCCGGUGGUAAAAAAGAUCGGAAGAGCACACGUCU [U7G U8C G9U U10A U11G C12G]	1.19
GGGUCGGCUAGACAUAAUCGCGUGGAUAUGGCACGCAAGUUUCUACCGGGCACCGUAAAUGUCCGACUGGAGCCGUUCGGGCGGCUAUAAACAGACCUCAGGCCCGAAGCGUGGCGGCACCUGCCGCCGGUGGUAAAAAAGAUCGGAAGAGCACACGUCU [U7G U8C G9U U10A U11G C12A]	1.12

Variant	aptazyme ON/OFF ratio
GGGUCGGCUCUUGAUAAUCGCGUGGAUAUGGCACGCAAGUUUCUACCGGGCACCGUAAAUGUCCGACUGGAGCCGUUCGGGCGGCUAUAAACAGACCUCAGGCCCGAAGCGUGGCGGCACCUGCCGCCGGUGGUAAAAAAGAUCGGAAGAGCACACGUCU [U7G U8C G9U U10C C12U C13G]	1.24
GGGUCGGCUCUUAAUAAUCGCGUGGAUAUGGCACGCAAGUUUCUACCGGGCACCGUAAAUGUCCGACUGGAGCCGUUCGGGCGGCUAUAAACAGACCUCAGGCCCGAAGCGUGGCGGCACCUGCCGCCGGUGGUAAAAAAGAUCGGAAGAGCACACGUCU [U7G U8C G9U U10C C12U C13A]	1.35
GGGUCGGCUCUUUAUAAUCGCGUGGAUAUGGCACGCAAGUUUCUACCGGGCACCGUAAAUGUCCGACUGGAGCCGUUCGGGCGGCUAUAAACAGACCUCAGGCCCGAAGCGUGGCGGCACCUGCCGCCGGUGGUAAAAAAGAUCGGAAGAGCACACGUCU [U7G U8C G9U U10C C12U C13U]	1.26
GGGUCGGCUAGAUAUAAUCGCGUGGAUAUGGCACGCAAGUUUCUACCGGGCACCGUAAAUGUCCGACUGGAGCCGUUCGGGCGGCUAUAAACAGACCUCAGGCCCGAAGCGUGGCGGCACCUGCCGCCGGUGGUAAAAAAGAUCGGAAGAGCACACGUCU [U7G U8C G9U U10A U11G C12A C13U]	1.11
GGGUCGGCUAGAAAUAAUCGCGUGGAUAUGGCACGCAAGUUUCUACCGGGCACCGUAAAUGUCCGACUGGAGCCGUUCGGGCGGCUAUAAACAGACCUCAGGCCCGAAGCGUGGCGGCACCUGCCGCCGGUGGUAAAAAAGAUCGGAAGAGCACACGUCU [U7G U8C G9U U10A U11G C12A C13A]	1.1
GGGUCGGCUAGAGAUAAUCGCGUGGAUAUGGCACGCAAGUUUCUACCGGGCACCGUAAAUGUCCGACUGGAGCCGUUCGGGCGGCUAUAAACAGACCUCAGGCCCGAAGCGUGGCGGCACCUGCCGCCGGUGGUAAAAAAGAUCGGAAGAGCACACGUCU [U7G U8C G9U U10A U11G C12A C13G]	1.09
GGGUCGGCUCUGCAUAAUCGCGUGGAUAUGGCACGCAAGUUUCUACCGGGCACCGUAAAUGUCCGACUGGAGCCGUUCGGGCGGCUAUAAACAGACCUCAGGCCCGAAGCGUGGCGGCACCUGCCGCCGGUGGUAAAAAAGAUCGGAAGAGCACACGUCU [U7G U8C G9U U10C C12G]	1.87
GGGUCGGCUCUACAUAAUCGCGUGGAUAUGGCACGCAAGUUUCUACCGGGCACCGUAAAUGUCCGACUGGAGCCGUUCGGGCGGCUAUAAACAGACCUCAGGCCCGAAGCGUGGCGGCACCUGCCGCCGGUGGUAAAAAAGAUCGGAAGAGCACACGUCU [U7G U8C G9U U10C C12A]	2.08
GGGUCGGCUCUUCAUAAUCGCGUGGAUAUGGCACGCAAGUUUCUACCGGGCACCGUAAAUGUCCGACUGGAGCCGUUCGGGCGGCUAUAAACAGACCUCAGGCCCGAAGCGUGGCGGCACCUGCCGCCGGUGGUAAAAAAGAUCGGAAGAGCACACGUCU [U7G U8C G9U U10C C12U]	1.12
GGGUCGGCUACCAAUAAUCGCGUGGAUAUGGCACGCAAGUUUCUACCGGGCACCGUAAAUGUCCGACUGGAGCCGUUCGGGCGGCUAUAAACAGACCUCAGGCCCGAAGCGUGGCGGCACCUGCCGCCGGUGGUAAAAAAGAUCGGAAGAGCACACGUCU [U7G U8C G9U U10A U11C C13A]	1.42
GGGUCGGCUACCGAUAAUCGCGUGGAUAUGGCACGCAAGUUUCUACCGGGCACCGUAAAUGUCCGACUGGAGCCGUUCGGGCGGCUAUAAACAGACCUCAGGCCCGAAGCGUGGCGGCACCUGCCGCCGGUGGUAAAAAAGAUCGGAAGAGCACACGUCU [U7G U8C G9U U10A U11C C13G]	1.05
GGGUCGGCUACCUAUAAUCGCGUGGAUAUGGCACGCAAGUUUCUACCGGGCACCGUAAAUGUCCGACUGGAGCCGUUCGGGCGGCUAUAAACAGACCUCAGGCCCGAAGCGUGGCGGCACCUGCCGCCGGUGGUAAAAAAGAUCGGAAGAGCACACGUCU [U7G U8C G9U U10A U11C C13U]	1.18
GGGUCGGCUAGCUAUAAUCGCGUGGAUAUGGCACGCAAGUUUCUACCGGGCACCGUAAAUGUCCGACUGGAGCCGUUCGGGCGGCUAUAAACAGACCUCAGGCCCGAAGCGUGGCGGCACCUGCCGCCGGUGGUAAAAAAGAUCGGAAGAGCACACGUCU [U7G U8C G9U U10A U11G C13U]	1.38
GGGUCGGCUAGCGAUAAUCGCGUGGAUAUGGCACGCAAGUUUCUACCGGGCACCGUAAAUGUCCGACUGGAGCCGUUCGGGCGGCUAUAAACAGACCUCAGGCCCGAAGCGUGGCGGCACCUGCCGCCGGUGGUAAAAAAGAUCGGAAGAGCACACGUCU [U7G U8C G9U U10A U11G C13G]	1.1
GGGUCGGCUAGCAAUAAUCGCGUGGAUAUGGCACGCAAGUUUCUACCGGGCACCGUAAAUGUCCGACUGGAGCCGUUCGGGCGGCUAUAAACAGACCUCAGGCCCGAAGCGUGGCGGCACCUGCCGCCGGUGGUAAAAAAGAUCGGAAGAGCACACGUCU [U7G U8C G9U U10A U11G C13A]	1.14
GGGUCGGCUCUCAAUAAUCGCGUGGAUAUGGCACGCAAGUUUCUACCGGGCACCGUAAAUGUCCGACUGGAGCCGUUCGGGCGGCUAUAAACAGACCUCAGGCCCGAAGCGUGGCGGCACCUGCCGCCGGUGGUAAAAAAGAUCGGAAGAGCACACGUCU [U7G U8C G9U U10C C13A]	1.37
GGGUCGGCUCUCCAUAAUCGCGUGGAUAUGGCACGCAAGUUUCUACCGGGCACCGUAAAUGUCCGACUGGAGCCGUUCGGGCGGCUAUAAACAGACCUCAGGCCCGAAGCGUGGCGGCACCUGCCGCCGGUGGUAAAAAAGAUCGGAAGAGCACACGUCU [U7G U8C G9U U10C]	1.64
GGGUCGGCUAGCCAUAAUCGCGUGGAUAUGGCACGCAAGUUUCUACCGGGCACCGUAAAUGUCCGACUGGAGCCGUUCGGGCGGCUAUAAACAGACCUCAGGCCCGAAGCGUGGCGGCACCUGCCGCCGGUGGUAAAAAAGAUCGGAAGAGCACACGUCU [U7G U8C G9U U10A U11G]	2.29
